From PMC2737085

Target: RPA heterotrimer with the phosphomimetic Asp8-RPA2 subunit (UniProt P27694)
Test: co-IP

percent decrease in binding against RPA: 88%
Substance: MRE11/RAD50/NBS1 (MRN) complex (from UniProt P49959 1-708; Q92878 1-1312; O60934 1-754)
